Experimental data reported in the supplement of paper PMC12042874.
± gives the uncertainty stated by the source.

Test: amyloid nucleation score (Sup35N fusion, yeast selection) (log enrichment); library NNK2; higher = more nucleation; inactive = no reads after selection
Procedure, shortened: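 Growth for 7 days at 30°C on medium lacking adenine and uracil followed a 24-hour induction with 100 μM copper sulfate of psi-negative yeast expressing peptides of 20 random codons fused to Sup35N. Input and output plasmid inserts were sequenced with Illumina, and sequences with under 100 input reads were excluded. Nucleation score is the DiMSum log enrichment of output over input reads, centred on the mode score of non-aggregating sequences.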

**Q.** For RDMLRQMNSYQEYLFVRLDN, which amyloid nucleation score is on record?
**A.** -0.763 ± 1.1

**Q.** For RECIYFRFYSRWATLSFLNR, which amyloid nucleation score is on record?
**A.** -0.368 ± 1

**Q.** With RECNRNFQKSGSSEHETGLG as the substance, how does the amyloid nucleation score read?
**A.** -0.844 ± 0.54

**Q.** For REEGFS, which amyloid nucleation score is on record?
**A.** -1.29 ± 0.54

**Q.** Which amyloid nucleation score does the source give for REFMNFWHWRVCICAQE here?
**A.** -0.501 ± 0.38

**Q.** With REHSYLSIFLWMCAFVTNVE as the substance, how does the amyloid nucleation score read?
**A.** -0.98 ± 1.1

**Q.** Which amyloid nucleation score does the source give for REKVPYT here?
**A.** -0.428 ± 0.48

**Q.** Which amyloid nucleation score does the source give for REKVVKEPRTDESFVGRGGS here?
**A.** 0.724 ± 0.28

**Q.** Which amyloid nucleation score does the source give for RESWLAGMSVYWANSGMSFA here?
**A.** -0.487 ± 0.36

**Q.** With RETLAFA as the substance, how does the amyloid nucleation score read?
**A.** -0.329 ± 0.33

**Q.** For RFDCLTVLLVFESYHFKTAG, which amyloid nucleation score is on record?
**A.** -0.392 ± 0.31

**Q.** For RFDRTRCETKSRLVRIR, which amyloid nucleation score is on record?
**A.** 0.084 ± 0.41

**Q.** With RFDSDNTFDPGRWYSCSQDA as the substance, how does the amyloid nucleation score read?
**A.** -0.346 ± 0.53

**Q.** Which amyloid nucleation score does the source give for RFEYLFLEEYKLLAMRYLRT here?
**A.** -0.986 ± 0.3

**Q.** For RFFADLTMDQFNIFGGLWQG, which amyloid nucleation score is on record?
**A.** 1.09 ± 0.3

**Q.** With RFGSLVFFCTGFERSWHTSA as the substance, how does the amyloid nucleation score read?
**A.** 0.684 ± 0.44

**Q.** For RFLLQS, which amyloid nucleation score is on record?
**A.** -0.39 ± 0.61

**Q.** With RFMVFGNLYDERYTVRFLMR as the substance, how does the amyloid nucleation score read?
**A.** 3.66 ± 0.089

**Q.** Which amyloid nucleation score does the source give for RFNIFVLLFLVPEVGLHMVV here?
**A.** inactive

**Q.** With RFNVLRIGPLSHLQGWEHPT as the substance, how does the amyloid nucleation score read?
**A.** -0.632 ± 0.63

**Q.** For RFRGGSKSGLYFIVCISDVW, which amyloid nucleation score is on record?
**A.** -0.758 ± 0.44

**Q.** Which amyloid nucleation score does the source give for RFSDM here?
**A.** -0.126 ± 0.31

**Q.** Which amyloid nucleation score does the source give for RFSGASNLVESPIKWIVGAH here?
**A.** 4.96 ± 0.06

**Q.** With RFSQRNPITVHGQSDTV as the substance, how does the amyloid nucleation score read?
**A.** inactive

**Q.** For RFVVSEGLIGVVGSSKLILY, which amyloid nucleation score is on record?
**A.** 0.106 ± 1

**Q.** Which amyloid nucleation score does the source give for RFVYMDIRDMAGWTPLYVYP here?
**A.** -1.23 ± 1

**Q.** For RFVYMLVCIELVG, which amyloid nucleation score is on record?
**A.** -0.953 ± 0.78

**Q.** For RFWIEVEVYDVISFVYLERW, which amyloid nucleation score is on record?
**A.** 0.428 ± 0.34

**Q.** Which amyloid nucleation score does the source give for RGINKTDIFVFELCVHDVCL here?
**A.** 2.58 ± 0.16

**Q.** With RGKYAITCVMLWK as the substance, how does the amyloid nucleation score read?
**A.** 5.769 ± 0.054

**Q.** Which amyloid nucleation score does the source give for RGQMRLQRRLPKLRTSGKLQ here?
**A.** 1.49 ± 0.34

**Q.** With RGVLTSSLFPSKGRWVVGHW as the substance, how does the amyloid nucleation score read?
**A.** 2.35 ± 0.075

**Q.** Which amyloid nucleation score does the source give for RHFHGGSSIAARAVTWAGQG here?
**A.** 1.5 ± 0.44

**Q.** For RHNRC, which amyloid nucleation score is on record?
**A.** -0.117 ± 0.79

**Q.** For RHPGPAL, which amyloid nucleation score is on record?
**A.** 0.857 ± 0.25

**Q.** With RHTYVHYAHKVYLESFLGCG as the substance, how does the amyloid nucleation score read?
**A.** 6.327 ± 0.04

**Q.** For RIATLSFDSAIIQVYLRGSG, which amyloid nucleation score is on record?
**A.** 7.028 ± 0.033

**Q.** Which amyloid nucleation score does the source give for RICVKLKVDSGVKMHQTTAG here?
**A.** 7.952 ± 0.034

**Q.** For RIDGVFTIVSFYMELEGIRV, which amyloid nucleation score is on record?
**A.** inactive

**Q.** With RIDILGVTRWN as the substance, how does the amyloid nucleation score read?
**A.** 0.633 ± 0.3

**Q.** Which amyloid nucleation score does the source give for RIEVLTLCGGEAGSLVMGIV here?
**A.** 1.16 ± 0.48

**Q.** For RIFITIRIINPPKDFFIRCY, which amyloid nucleation score is on record?
**A.** inactive

**Q.** With RIFTFLSVSHPN as the substance, how does the amyloid nucleation score read?
**A.** 4.53 ± 0.053

**Q.** With RIFVWVGSVWFWGVS as the substance, how does the amyloid nucleation score read?
**A.** 3.55 ± 0.13

**Q.** With RILIINLSPNEYMIGLH as the substance, how does the amyloid nucleation score read?
**A.** 4.3 ± 0.1

**Q.** Which amyloid nucleation score does the source give for RIQINWDEFGQDRELRVSGR here?
**A.** 0.75 ± 0.5

**Q.** With RIRRVSERMSVFRTLHRTMW as the substance, how does the amyloid nucleation score read?
**A.** 5.01 ± 0.079

**Q.** For RISCSMVKRSYFRHVLVCEI, which amyloid nucleation score is on record?
**A.** 1.74 ± 0.26

**Q.** Which amyloid nucleation score does the source give for RISNVWENTFTLSAGSWGVR here?
**A.** 1.38 ± 0.22

**Q.** With RISVYRPVGVLLF as the substance, how does the amyloid nucleation score read?
**A.** 0.755 ± 0.4

**Q.** Which amyloid nucleation score does the source give for RITDYRCLTMNKGQSARNQG here?
**A.** inactive

**Q.** Which amyloid nucleation score does the source give for RITPFWYQRIYRIMY here?
**A.** -0.339 ± 0.22

**Q.** For RIVGDLICDVSSSQISTSHT, which amyloid nucleation score is on record?
**A.** -0.291 ± 0.48

**Q.** For RIWKWLLTQICFIRAQPLM, which amyloid nucleation score is on record?
**A.** 0.49 ± 0.31

**Q.** With RKATQIPMSVSMER as the substance, how does the amyloid nucleation score read?
**A.** 1.45 ± 0.4

**Q.** Which amyloid nucleation score does the source give for RKCAPMDASSRHADSYPSQS here?
**A.** 1.24 ± 0.19

**Q.** With RKKMGFF as the substance, how does the amyloid nucleation score read?
**A.** inactive

**Q.** For RKLGNLLPPEY, which amyloid nucleation score is on record?
**A.** 0.499 ± 0.35

**Q.** For RKLIYSICKYVFALSVTIVG, which amyloid nucleation score is on record?
**A.** -1.3 ± 0.32

**Q.** With RKNVYFIFPIISSLYKV as the substance, how does the amyloid nucleation score read?
**A.** 7.009 ± 0.049

**Q.** With RKPMLFLRYF as the substance, how does the amyloid nucleation score read?
**A.** inactive

**Q.** For RKPRFIACMTSPCLALC, which amyloid nucleation score is on record?
**A.** 0.066 ± 0.5

**Q.** With RKSYGRSWSSGNLYYNLHGD as the substance, how does the amyloid nucleation score read?
**A.** -1.18 ± 1.1

**Q.** For RKVLLVGCCPLVLKIVFCSV, which amyloid nucleation score is on record?
**A.** 7.734 ± 0.048

**Q.** For RKVLLVNVLGSDEDTHLTRV, which amyloid nucleation score is on record?
**A.** -0.973 ± 0.76

**Q.** Which amyloid nucleation score does the source give for RLDWREVHWLVRKTLL here?
**A.** 0.648 ± 0.16

**Q.** For RLDYNSSCQIFLFAGFMYLF, which amyloid nucleation score is on record?
**A.** 3.23 ± 0.067

**Q.** Which amyloid nucleation score does the source give for RLFANASGVDMEGTGYNRSD here?
**A.** 0.359 ± 0.4

**Q.** Which amyloid nucleation score does the source give for RLFTWIFPTGNTGF here?
**A.** 8.831 ± 0.074

**Q.** Which amyloid nucleation score does the source give for RLIACIRIVSVVVNAVSLKG here?
**A.** 1.79 ± 0.42

**Q.** Which amyloid nucleation score does the source give for RLKGGFVEGPSGRVTCVRIT here?
**A.** 0.132 ± 0.38

**Q.** Which amyloid nucleation score does the source give for RLKVVLRYLASGHWKLVA here?
**A.** 1.31 ± 0.41

**Q.** Which amyloid nucleation score does the source give for RLKWKLEQNSSLLWGRYRTA here?
**A.** 1.24 ± 0.14

**Q.** For RLKYHWGGFEA, which amyloid nucleation score is on record?
**A.** 0.767 ± 0.4

**Q.** For RLLAGIFLEEKFYPRPSDIL, which amyloid nucleation score is on record?
**A.** 3.69 ± 0.13

**Q.** For RLLWLPLHSFMGMDTPSGVY, which amyloid nucleation score is on record?
**A.** 0.448 ± 0.6

**Q.** Which amyloid nucleation score does the source give for RLMHGRIRPLNSKWLTGLG here?
**A.** 1.11 ± 0.34

**Q.** Which amyloid nucleation score does the source give for RLMTVI here?
**A.** -0.229 ± 0.28

**Q.** With RLNIGLLSVGYR as the substance, how does the amyloid nucleation score read?
**A.** 1.76 ± 0.17

**Q.** For RLPFYVW, which amyloid nucleation score is on record?
**A.** inactive

**Q.** With RLQRVLS as the substance, how does the amyloid nucleation score read?
**A.** -0.458 ± 0.42

**Q.** For RLSCDTVFMMSFGIICSFFN, which amyloid nucleation score is on record?
**A.** 4.418 ± 0.039

**Q.** With RLWYSSSVLLV as the substance, how does the amyloid nucleation score read?
**A.** 0.709 ± 0.36

**Q.** Which amyloid nucleation score does the source give for RMCMAIKERSY here?
**A.** 0.508 ± 0.38

**Q.** For RMFIVHSCSTWLTNNGLNHM, which amyloid nucleation score is on record?
**A.** 5.318 ± 0.036

**Q.** For RMLCLTSG, which amyloid nucleation score is on record?
**A.** -0.59 ± 0.63
